{
  "source": "patent CN1618813A",
  "about": "(SHANGHAI HUMAN GENOME RES CT, dated 2005)",
  "biological_target": "T1, 甲状腺素受体相互作用蛋白15 (thyroid receptor interacting protein 15, TRIP15) (human, UniProt P61201 1-443)",
  "T1 construct": "Purified prokaryotic expression product of the TRIP15 gene; also called TRIP15蛋白; 人TRIP15蛋白",
  "T1 sequence (P61201 whole entry)": "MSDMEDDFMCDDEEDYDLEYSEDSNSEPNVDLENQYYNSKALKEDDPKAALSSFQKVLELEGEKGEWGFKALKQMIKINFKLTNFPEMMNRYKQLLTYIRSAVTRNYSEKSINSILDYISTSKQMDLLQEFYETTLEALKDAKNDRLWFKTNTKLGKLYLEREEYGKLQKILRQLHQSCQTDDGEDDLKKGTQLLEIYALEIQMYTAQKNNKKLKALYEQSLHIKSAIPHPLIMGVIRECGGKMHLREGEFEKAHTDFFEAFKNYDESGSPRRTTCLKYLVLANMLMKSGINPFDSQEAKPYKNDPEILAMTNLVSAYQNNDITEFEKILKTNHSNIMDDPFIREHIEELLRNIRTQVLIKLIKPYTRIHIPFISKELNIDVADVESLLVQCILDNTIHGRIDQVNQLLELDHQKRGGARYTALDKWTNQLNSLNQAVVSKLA",
  "experiment": "indirect ELISA, phage antibody on purified TRIP15 antigen",
  "data": [
    {"binder": "抗TRIP15噬菌体抗体 (anti-TRIP15 phage-displayed human single-chain antibody, positive clone) (scFv, V domains shown, also called 阳性克隆的噬菌体抗体; 针对TRIP15抗原的scFv) VH: EVQLLESGGGLVQPGGSLRLSCAASGFTFSSYAMSWVRQAPGKGLEWVSSISNDGLKTLYADSVKGRFTISRDNSKNTLYLQMNSLRAEDTAVYYCAKNTGSFDYWGQGTLVTV VL: DIQMTQSPSSLSASVGDRVTITCRASQSISSYLNWYQQKPGKAPKLLIYRASNLQSGVPSRFSGSGSGTDFTLTISSLQPEDFATYYCQQVLRRPATFGQGTKVEIKR", "values": [
      {"measurement": "binding result", "value": "binds"}
    ]}
  ]
}
